Measurements: patent US11357830B2, “Nano-scale delivery device and uses thereof” (The Regents of the University of California, priority 2016, dated 2022)

Test system: Proteinase-K
Assay: Proteinase-K protection test of Beta Lactamase (BLA) preparations, Nitrocefin Assay (FIGS. 3B, 3C)
Type: biochemical
Conditions: PK overnight, 0.1 mg/ml in 1x PBS, 37° C.; 250 μg/ml nitrocefin, absorbance 486 nm
Procedure: To verify enzyme encapsulation and activity, three separate preparations were incubated with and without Proteinase-K (PK). […] In this example, the three preparations were exposed to Proteinase-K (Thermo Scientific Pierce Proteinase K) enzyme overnight at a concentration of 0.1 mg/ml in 1× phosphate buffered saline (PBS) solution at 37° C. Enzyme activity assay was done on the samples post incubation with PK using a Nitrocefin Assay (BLA hydrolysis of nitrocefin produces a shift of UV absorption inside the visible light spectrum from intact nitrocefin (˜380 nm) to degraded nitrocefin (˜500 nm) allowing visual detection of BLA activity on a macroscopic level). Each reaction was 100 μl in total and contained 250 μg/ml nitrocefin as substrate. Absorbance was measured at 486 nm.

Beta Lactamase (BLA) [bare unencapsulated enzyme]
BLA enzyme activity when exposed to Proteinase-K (PK): loses all activity
